Values of other authors as cited in patent US20100215737A1, “COMBINATION PHARMACEUTICAL COMPOSITIONS” (priority 2007, published 2010).

Tested on: MCO
Settings: 1 mg/kg iv alone, 1, 2 or 3 h after occlusion

B1: rt-PA: tissue plasminogen activator, thrombolytic (protein, UniProt P00750 36-562, looked up)
Tissue-type plasminogen …: SYQVICRDEKTQMIYQQHQSWLRPVLRSNRVEYCWCNSGRAQCHSVPVKSCSEPRCFNGGTCQQALYFSDFVCQCPEGFAGKCCEIDTRATCYEDQGISYRGTWSTAESGAECTNWNSSALAQKPYSGRRPDAIRLGLGNHNYCRNPDRDSKPWCYVFKAGKYSSEFCSTPACSEGNSDCYFGNGSAYRGTHSLTESGASCLPWNSMILIGKVYTAQNPSAQALGLGKHNYCRNPDGDAKPWCHVLKNRRLTWEYCDVPSCSTCGLRQYSQPQFRIKGGLFADIASHPWQAAIFAKHRRSPGERFLCGGILISSCWILSAAHCFQERFPPHHLTVILGRTYRVVPGEEEQKFEVEKYIVHKEFDDDTYDNDIALLQLKSDSSRCAQESSVVRTVCLPPADLQLPDWTECELSGYGKHEALSPFYSERLKEAHVRLYPSSRCTSQHLLNRTVTDNMLCAGDTRSGGPQANLHDACQGDSGGPLVCLNDGRMTLVGIISWGLGCGQKDVPGVYTKVTNYLDWIRDNMRP
neuroprotective effect, drug alone: neuroprotective effects when administered alone up to 1 h following occlusion
